{"source": "paper PMC6679477", "about": "“Optimization of a nicotine degrading enzyme for potential use in treatment of nicotine addiction” (BMC Biotechnology, 2019)"}
{"tested_on": "T1, CN1CCC[C@H]1c1cccnc1", "T1 construct": "full-length, C-terminal His6 tag kept, expressed in E. coli, purified, 52 kDa on SDS-PAGE; FAD enzyme", "test": "residual nicotine by GC; progress curves fitted in KinTek, Km derived from kcat/Km and kcat", "format": "biochemical, Pseudomonas putida", "conditions": "rat serum, 37 °C, 250 nM (40 ng/mL) nicotine, O2 as oxidant", "source_text": "(§1) residual nicotine by GC; progress curves fitted in KinTek, Km derived from kcat/Km and kcat on wt NicA2", "units": {"Km": "µM", "kcat": "s⁻¹", "kcat/Km": "M⁻¹ s⁻¹"}}
{"molecule": "wt NicA2 (Pseudomonas putida S16; A107G)", "Km": 0.335, "kcat": 0.053, "kcat/Km": 160000}
{"molecule": "wt NicA2 (Pseudomonas putida S16; A107R)", "Km": 0.83, "kcat": 0.159, "kcat/Km": 190000}
{"molecule": "wt NicA2 (Pseudomonas putida S16; A107T)", "Km": 0.285, "kcat": 0.05, "kcat/Km": 180000}
{"molecule": "wt NicA2 (Pseudomonas putida S16; A426C)", "Km": 0.23, "kcat": 0.03, "kcat/Km": 130000}
{"molecule": "wt NicA2 (Pseudomonas putida S16; F104I)", "Km": 0.24, "kcat": 0.039, "kcat/Km": 160000}
{"molecule": "wt NicA2 (Pseudomonas putida S16; F104R)", "Km": 0.27, "kcat": 0.041, "kcat/Km": 150000}
{"molecule": "wt NicA2 (Pseudomonas putida S16; F104S)", "Km": 0.25, "kcat": 0.031, "kcat/Km": 130000}
{"molecule": "wt NicA2 (Pseudomonas putida S16; F104T)", "Km": 0.33, "kcat": 0.055, "kcat/Km": 170000}
{"molecule": "wt NicA2 (Pseudomonas putida S16; F355H)", "Km": 0.22, "kcat": 0.029, "kcat/Km": 130000}
{"molecule": "wt NicA2 (Pseudomonas putida S16; G106A)", "Km": 0.28, "kcat": 0.031, "kcat/Km": 110000}
{"substrate": "CN1CCC[C@H]1c1cccnc1", "test": "residual nicotine by GC; progress curves fitted in KinTek, Km derived from kcat/Km and kcat", "format": "biochemical, Pseudomonas putida", "conditions": "rat serum, 37 °C, 250 nM (40 ng/mL) nicotine, O2 as oxidant", "source_text": "as §1", "units": {"Km": "µM", "kcat": "s⁻¹", "kcat/Km": "M⁻¹ s⁻¹"}}
{"molecule": "wt NicA2 (Pseudomonas putida S16) (protein, full-length, C-terminal His6 tag kept, expressed in E. coli, purified, 52 kDa on SDS-PAGE; FAD enzyme) MSDKTKTNEGFSRRSFIGSAAVVTAGVAGLGAIDAASATQKTNRASTVKGGFDYDVVVVGGGFAGATAARECGLQGYRTLLLEARSRLGGRTFTSRFAGQEIEFGGAWVHWLQPHVWAEMQRYGLGVVEDPLTNLDKTLIMYNDGSVESISPDEFGKNIRIAFEKLCHDAWEVFPRPHEPMFTERARELDKSSVLDRIKTLGLSRLQQAQINSYMALYAGETTDKFGLPGVLKLFACGGWNYDAFMDTETHYRIQGGTIGLINAMLTDSGAEVRMSVPVTAVEQVNGGVKIKTDDDEIITAGVVVMTVPLNTYKHIGFTPALSKGKQRFIKEGQLSKGAKLYVHVKQNLGRVFAFADEQQPLNWVQTHDYSDELGTILSITIARKETIDVNDRDAVTREVQKMFPGVEVLGTAAYDWTADPFSLGAWAAYGVGQLSRLKDLQAAEGRILFAGAETSNGWHANIDGAVESGLRAGREVKQLLS", "Km": 0.24, "kcat": 0.015, "kcat/Km": 64000}
